Laboratory results published in US20250361525, “AAV VECTORS FOR GENE EDITING” (Scribe Therapeutics Inc., published 2025).
Numbering of substitutions follows the chain as printed.

T1: CasX variant 515 (synthetic construct)
T1 chain: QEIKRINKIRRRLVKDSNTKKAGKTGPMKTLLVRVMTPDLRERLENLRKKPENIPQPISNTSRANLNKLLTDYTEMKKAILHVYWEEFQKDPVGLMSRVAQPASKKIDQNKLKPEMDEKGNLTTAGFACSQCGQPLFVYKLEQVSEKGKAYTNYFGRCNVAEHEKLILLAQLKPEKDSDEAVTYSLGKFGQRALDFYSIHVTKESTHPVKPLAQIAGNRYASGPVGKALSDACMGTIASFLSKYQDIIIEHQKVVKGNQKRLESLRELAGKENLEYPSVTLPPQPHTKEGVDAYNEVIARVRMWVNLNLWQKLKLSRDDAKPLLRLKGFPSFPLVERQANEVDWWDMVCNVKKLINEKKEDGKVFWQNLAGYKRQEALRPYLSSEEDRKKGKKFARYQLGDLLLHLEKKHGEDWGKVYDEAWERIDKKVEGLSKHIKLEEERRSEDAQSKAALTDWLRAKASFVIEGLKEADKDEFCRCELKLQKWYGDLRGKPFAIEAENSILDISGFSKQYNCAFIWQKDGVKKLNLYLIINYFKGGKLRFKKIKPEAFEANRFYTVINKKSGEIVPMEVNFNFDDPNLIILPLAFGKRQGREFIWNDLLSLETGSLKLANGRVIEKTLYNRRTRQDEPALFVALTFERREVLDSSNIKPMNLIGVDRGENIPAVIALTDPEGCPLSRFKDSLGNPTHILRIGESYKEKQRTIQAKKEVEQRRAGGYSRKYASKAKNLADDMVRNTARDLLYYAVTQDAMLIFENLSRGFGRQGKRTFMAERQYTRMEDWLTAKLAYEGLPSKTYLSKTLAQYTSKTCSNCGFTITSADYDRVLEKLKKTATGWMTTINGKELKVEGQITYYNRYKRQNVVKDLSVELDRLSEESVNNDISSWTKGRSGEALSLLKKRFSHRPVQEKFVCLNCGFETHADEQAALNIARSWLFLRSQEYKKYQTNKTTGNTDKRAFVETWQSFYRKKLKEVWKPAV

B1: sgRNA 2.7.9 ; 7.9 target (ssRNA ; dsDNA)
RNA: UACUGGCGCUUUUAUCUCAUUACUUUGAGAGCCAUCACCAGCGACUAUGUCGUAUGGGUAAAGCGCUUAUUUAUCGGAGAGAAAUCCGAUAAAUAAGAAGCAUCAAAGGUGUAGUACAAGAGAUAGAA
DNA 1: TTTCAGTGGGGGTGAATTCAGTGTAGTACAAGAGATAGAAAGACCAGTCCTTGCTGAAAG
DNA 2: CTTTCAGCAAGGACTGGTCTTTCTATCTCTTGTACTACACTGAATTCACCCCCACTGAAA
modifications: 5' amino modifier C6
B2: sgRNA 174.7.9 ; 7.9 target (ssRNA ; dsDNA)
RNA: ACUGGCGCUUUUAUCUGAUUACUUUGAGAGCCAUCACCAGCGACUAUGUCGUAGUGGGUAAAGCUCCCUCUUCGGAGGGAGCAUCAAAGGUGUAGUACAAGAGAUAGAA
DNA 1: B1 DNA 1
DNA 2: B1 DNA 2
modifications: 5' amino modifier C6
B3: sgRNA 316.7.9 ; 7.9 target (ssRNA ; dsDNA)
RNA: B2 RNA with U11C, U24C, A29C, A87G
DNA 1: B1 DNA 1
DNA 2: B1 DNA 2
modifications: 5' amino modifier C6
B4: sgRNA 235.7.9 ; 7.9 target (ssRNA ; dsDNA)
RNA: ACUGGCGCUUCUAUCUGAUUACUCUGAGCGCCAUCACCAGCGACUAUGUCGUAGUGGGUAAAGCCGCUUACGGACUUCGGUCCGUAAGAGGCAUCAGAGGUGUAGUACAAGAGAUAGAA
DNA 1: B1 DNA 1
DNA 2: B1 DNA 2
modifications: 5' amino modifier C6
B5: sgRNA 2.7.37 ; 7.37 target (ssRNA ; dsDNA)
RNA: UACUGGCGCUUUUAUCUCAUUACUUUGAGAGCCAUCACCAGCGACUAUGUCGUAUGGGUAAAGCGCUUAUUUAUCGGAGAGAAAUCCGAUAAAUAAGAAGCAUCAAAGGGCCGAGAUGUCUCGCUCCG
DNA 1: TGAAGCTGACAGCATTCGGGCCGAGATGTCTCGCTCCGTGGCCTTAGCTGTGCTCGCGCT
DNA 2: AGCGCGAGCACAGCTAAGGCCACGGAGCGAGACATCTCGGCCCGAATGCTGTCAGCTTCA
modifications: 5' amino modifier C6
B6: sgRNA 316.7.37 ; 7.37 target (ssRNA ; dsDNA)
RNA: ACUGGCGCUUCUAUCUGAUUACUCUGAGCGCCAUCACCAGCGACUAUGUCGUAGUGGGUAAAGCUCCCUCUUCGGAGGGAGCAUCAGAGGGCCGAGAUGUCUCGCUCCG
DNA 1: B5 DNA 1
DNA 2: B5 DNA 2
modifications: 5' amino modifier C6
B7: sgRNA 174.7.37 ; 7.37 target (ssRNA ; dsDNA)
RNA: B6 RNA with C11U, C24U, C29A, G87A
DNA 1: B5 DNA 1
DNA 2: B5 DNA 2
modifications: 5' amino modifier C6
B8: sgRNA 235.7.37 ; 7.37 target (ssRNA ; dsDNA)
RNA: ACUGGCGCUUCUAUCUGAUUACUCUGAGCGCCAUCACCAGCGACUAUGUCGUAGUGGGUAAAGCCGCUUACGGACUUCGGUCCGUAAGAGGCAUCAGAGGGCCGAGAUGUCUCGCUCCG
DNA 1: B5 DNA 1
DNA 2: B5 DNA 2
modifications: 5' amino modifier C6

Target: T1, CasX variant 515
Assay: cleavage_in_vitro

| Binder | activity [s⁻¹] |
| --- | --- |
| B1 | 0.135 |
| B2 | 0.172 |
| B3 | 0.141 |
| B4 | 0.17 |
| B5 | 0.0204 |
| B6 | 0.0851 |
| B7 | 0.0534 |
| B8 | 0.0647 |
